Experimental data from the DeepSol protein solubility set.

test: soluble on expression in E. coli; label from the status in PepcDB or PDB records

Sequence	soluble on expression in E. coli
MGSDKIHHHHHHMTGTANYVEFEPTRMGLYEASIRVKHECPYRRISERYPDLTIREWPLSDCQVLEITTETTPTDELLDEINEIGTVLYESADDNGYHVVTQSCLCSLEDSVIDRFEEHNCLYQSPTIYRQGWEHYTVVAFDSEDVRELLDSLRSDREIELLSKTSISETQIPHSMLAPANQLFEDITDRQLAALQLALESGYYEQPRKTSLRDLAERTAVARSTYEEHLRKAENKLLTNAGQFLRLVTATSTTNPLGVESGRRTEQTAD	not soluble
MSLDTPDYKRVVLKLSGEALAGNDGFGINPSVVNLISAQIKEVVELGVEVAIVVGGGNIWRGKLGSEMGMDRAAADQMGMLATIMNSLSLQDSLENIGVATRVQTSIDMRQIAEPYIRRKAIRHLEKGRVVIFAGGTGNPYFSTDTAAALRAAEIEADVILMAKNNVDGVYNADPKLDENAKKYEELSYLDVIKEGLEVMDTTASSLSMDNDIPLIVFSFTEQGNNIKRVILGEKIGTTVRGKKEGHHHHHH	soluble
MSLAIQNPYTAYQQNSVNTATPGELTLMLYNGCLKFIRLAAQAIENDDMERKNENLIKAQNIIQELNFTLNRNIELSASMGAMYDYMYRRLVQANIKNDTGMLAEVEGYVTDFRDAWKQAIQSERKDRHGSGGIAEGGSHHHHHH	soluble
QQVRQSPQSLTVWEGETAILNCSYEDSTFNYFPWYQQFPGEGPALLISIRSVSDKKEDGRFTIFFNKREKKLSLHITDSQPGDSATYFCAARYQGGRALIFGTGTTVSVSP	soluble
MSLSIAISNAIIVTQNDNRDVYRGNVKIDGNKIQYVGKDEVDGDILIDGTNKVLMPGLINTHAHVGMSASKGLFDDVDLDSFLKKTFEYDSDRTSTGIFNSAKLGMYEMIGNGITAFVDLYYSEDIIAKAAEEIGIRAFLSWVTLDKELTTQIGDPVENAENFIRNHVGNKYVVPSVGVQGIYVANDDTFRRAMDLAEKYGTILHMHLSETRKEVYDAVKKLGERPIEHLHNIGILNKRVLAAHCVWATYHEVRLLSKDGVNVSWNSISNFKLGTGGIPPIPEMMRENVNVTIGTDSNGSNNSLDMFQAMKFSAISVKNYRWDASLMKAQEILDMATRNAARALQLNAGSIEVGKLADVVLLDATIPSMIPTNEANAVSNIVYSSSPQNVDTVIIDGEIKKINGKILGFHSNKFTNSEFKEGHHHHHH	not soluble
MGSDKIHHHHHHMRFDLIDLRLFLHILETGSITHGAARANMSLPSASARLRGMEDALGMPLLERGRRGVESTPTGDTLAHHARLVLGQIERMQGELGEHQEGRKACIRLWTNTAAITEFLPAAIGLFLRDHPNVQIDLKERQSSETVKAVLSGAAEIGIISDAVEHGALQTFPFAIDKLVLVTSRDDALATCRRTTLAEVADREFIGLSADSALQAYLGERALLAGQPLSFRTHVRTFDAVCCMVDQGAGVGIVPATAAKRYRGTPGIRTIELTDSWATRQLLICMRDLNAMARPEKALVRHLAGI	not soluble
MSLSEQHIDPTRLRMDELVVALTDRETELAAAEGRIRELEREVSELRRSLNSPSQEAELERLRLLAGTTAVTGPGVVVTLSETPEAVTAKNRVADEDIWRVVNELYTAGAEAIAVGGVRLTSVSGIRNVGERILVGETMIASPVEIHAIGDPAVLDASLKLRGGVIDLLARWGIKVTVVKSDSLTLPPLKTQPAFRYAKPAESAGSEGHHHHHH	soluble
MASEIHMTGPMCLIENTNGRLMANPEALKILSAITQPMVVVAIVGLYRTGKSYLMNKLAGKKKGFSLGSTVQSHTKGIWMWCVPHPKKPGHILVLLDTEGLGDVEKGDNQNDSWIFALAVLLSSTFVYNSIGTINQQAMDQLYYVTELTHRIRSKSSPDENENEVEDSADFVSFFPDFVWTLRDFSLDLEADGQPLTPDEYLTYSLKLKKGTSQKDETFNLPRLCIRKFFPKKKCFVFDRPVHRRKLAQLEKLQDEELDPEFVQQVADFCSYIFSNSKTKTLSGGIQVNGPRLESLVLTYVNAISSGDLPCMENAVLALAQIENSAAVQKAIAHYEQQMGQKVQLPTESLQELLDLHRDSEREAIEVFIRSSFKDVDHLFQKELAAQLEKKRDDFCKQNQEASSDRCSGLLQVIFSPLEEEVKAGIYSKPGGYRLFVQKLQDLKKKYYEEPRKGIQAEEILQTYLKSKESMTDAILQTDQTLTEKEKEIEVERVKAESAQASAKMLHEMQRKNEQMMEQKERSYQEHLKQLTEKMENDRVQLLKEQERTLALKLQEQEQLLKEGFQKESRIMKNEIQDLQTKMRRRKACTIS	soluble
